Experimental data from patent US20130236459A1 (MERRIMACK PHARMACEUTICALS, published 2013).
Substitutions are numbered along the chain they refer to.

B1: M57-G1-M1.3 (bispecific antibody, human IgG1, kappa)
heavy: not shown
light: DIQLTQSPSSLSASLGDRVTITCRASQGISSYLAWYQQKPGKAPKLLIYARSTRQSGVPSRFSGSGSGTEFTLTISSLQPEDSATYYCQQYWTWPLTFGGGTKVEIKRTVAAPSVFIFPPSDEQLKSGTASVVCLLNNFYPREAKVQWKVDNALQSGNSQESVTEQDSKDSTYSLSSTLTLSKADYEKHKVYACEVTHQGLSSPVTKSFNRGEC
B2: M78-G1-P6 (bispecific antibody, human IgG1, kappa)
heavy: not shown
light: B1 light with L4M, R51S, E70D, A84G, T93A, W94F
B3: P4-G1-P6 (bispecific antibody, human IgG1, kappa)
heavy: not shown
light: B1 light with L4M, R51K, R54L, E70D, W94F
B4: M57-G1-P6 (bispecific antibody, human IgG1, kappa)
heavy: not shown
light: B1 light
B5: M78-G1-C8 (bispecific antibody, human IgG1, kappa)
heavy: not shown
light: B1 light with L4M, R51S, E70D, A84G, T93A, W94F
B6: M78-G1-M1.3 (bispecific antibody, human IgG1, kappa)
heavy: not shown
light: B1 light with L4M, R51S, E70D, A84G, T93A, W94F
B7: M57-G1-C8 (bispecific antibody, human IgG1, kappa)
heavy: not shown
light: B1 light
B8: B60-G1-M78 (bispecific antibody, human IgG1, lambda)
heavy: not shown
light: SSELTQDPAVSVALGQTVRITCQGDSLRSYYASWYQQKPGQAPVLVIYGKNNRPSGIPDRFSGSSSGNTASLTITGAQAEDEADYYCNSRDWPGNQWVFGGGTKVTVLGQPKAAPSVTLFPPSSEELQANKATLVCLVSDFYPGAVTVAWKADGSPVKVGVETTKPSKQSNNKYAASSYLSLTPEQWKSHRSYSCRVTHEGSTVEKTVAPAECS
B9: M27-G1-M78 (bispecific antibody, human IgG1, lambda)
heavy: not shown
light: B8 light with W92T, N95D
B10: M7-G1-P4 (bispecific antibody, human IgG1, lambda)
heavy: not shown
light: B8 light with W92T, Q96K, L108I
B11: M27/M7-G1-M57 (bispecific antibody, human IgG1, lambda)
heavy: not shown
light: B8 light with W92T, Q96K, L108I
B12: B60-G1-M57 (bispecific antibody, human IgG1, lambda)
heavy: not shown
light: B8 light
B13: M27-G1-P4 (bispecific antibody, human IgG1, lambda)
heavy: not shown
light: B8 light with W92T, N95D
B14: M27/M7-G1-M78 (bispecific antibody, human IgG1, lambda)
heavy: not shown
light: B8 light with W92T, Q96K, L108I
B15: M27-G1-M57 (bispecific antibody, human IgG1, lambda)
heavy: not shown
light: B8 light with W92T, N95D
B16: B60-G1-P4 (bispecific antibody, human IgG1, lambda)
heavy: not shown
light: B8 light
B17: M7-G1-M57 (bispecific antibody, human IgG1, lambda)
heavy: not shown
light: B8 light with W92T, Q96K, L108I
B18: M27/M7-G1-P4 (bispecific antibody, human IgG1, lambda)
heavy: not shown
light: B8 light with W92T, Q96K, L108I

Target: T1, IGF-1R (receptor for insulin-like growth factor 1), endogenous on human tumor cell lines (human, UniProt P08069 31-1367)
T1 sequence (P08069 31-1367): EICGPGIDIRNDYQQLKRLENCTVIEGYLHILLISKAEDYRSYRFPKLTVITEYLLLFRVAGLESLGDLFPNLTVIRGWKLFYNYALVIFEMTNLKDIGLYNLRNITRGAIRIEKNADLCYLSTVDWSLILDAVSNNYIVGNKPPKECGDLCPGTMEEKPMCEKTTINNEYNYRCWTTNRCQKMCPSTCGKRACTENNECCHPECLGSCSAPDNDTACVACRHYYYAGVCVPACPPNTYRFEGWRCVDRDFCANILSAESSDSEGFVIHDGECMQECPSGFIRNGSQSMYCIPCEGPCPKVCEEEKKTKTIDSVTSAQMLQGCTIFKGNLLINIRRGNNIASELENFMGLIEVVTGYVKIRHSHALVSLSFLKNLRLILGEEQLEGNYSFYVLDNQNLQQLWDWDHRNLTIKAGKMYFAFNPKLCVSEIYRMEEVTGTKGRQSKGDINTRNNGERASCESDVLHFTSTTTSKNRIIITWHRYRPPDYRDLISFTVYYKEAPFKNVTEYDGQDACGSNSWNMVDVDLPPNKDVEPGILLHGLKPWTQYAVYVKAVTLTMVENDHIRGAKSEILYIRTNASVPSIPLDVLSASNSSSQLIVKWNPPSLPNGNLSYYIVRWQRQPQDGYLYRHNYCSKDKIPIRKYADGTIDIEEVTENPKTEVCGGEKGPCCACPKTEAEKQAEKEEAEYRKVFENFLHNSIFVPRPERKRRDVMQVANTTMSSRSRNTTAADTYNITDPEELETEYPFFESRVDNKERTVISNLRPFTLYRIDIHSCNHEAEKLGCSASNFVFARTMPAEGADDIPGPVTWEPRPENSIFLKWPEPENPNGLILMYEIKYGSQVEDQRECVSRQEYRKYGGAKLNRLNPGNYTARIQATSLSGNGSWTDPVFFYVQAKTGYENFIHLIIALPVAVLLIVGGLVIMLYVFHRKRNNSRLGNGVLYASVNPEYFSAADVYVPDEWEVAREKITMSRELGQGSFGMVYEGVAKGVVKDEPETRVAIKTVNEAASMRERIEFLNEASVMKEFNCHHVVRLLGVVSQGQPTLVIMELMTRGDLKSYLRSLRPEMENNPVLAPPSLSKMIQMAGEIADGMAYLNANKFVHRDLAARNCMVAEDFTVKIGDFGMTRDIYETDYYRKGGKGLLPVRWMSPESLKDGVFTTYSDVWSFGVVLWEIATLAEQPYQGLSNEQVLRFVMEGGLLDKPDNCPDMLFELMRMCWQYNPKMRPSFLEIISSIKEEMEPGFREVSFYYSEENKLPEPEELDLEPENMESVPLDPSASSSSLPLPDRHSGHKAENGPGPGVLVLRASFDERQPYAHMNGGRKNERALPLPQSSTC
Assay: cell-based or functional assay

| Binder | pIGF1R % Inhibition (BxPC-3) [%] | pIGF1R IC50 (BxPC-3) |
| --- | --- | --- |
| B1 | 94 | 4.1e-10 M (inferred) |
| B2 | 95 | 4.2e-10 M (inferred) |
| B3 | 91 | 1.6e-10 M (inferred) |
| B4 | 92 | 2.5e-10 M (inferred) |
| B5 | 96 | 6.8e-10 M (inferred) |
| B6 | 97 | 5e-10 M (inferred) |
| B7 | 93 | 2.5e-10 M (inferred) |
| B8 | 86 | 3.5e-09 M (inferred) |
| B9 | 87 | 1.4e-09 M (inferred) |
| B10 | 93 | 2.4e-09 M (inferred) |
| B11 | 91 | 7.5e-09 M (inferred) |
| B12 | 85 | 1e-08 M (inferred) |
| B13 | 88 | 3e-09 M (inferred) |
| B14 | 91 | 1e-09 M (inferred) |
| B15 | 83 | 8.1e-09 M (inferred) |
| B16 | 88 | 4.4e-09 M (inferred) |
| B17 | 82 | 2.1e-08 M (inferred) |
| B18 | 99 | 1.3e-08 M (inferred) |

Target: T2, ErbB3 (HER3), endogenous on human tumor cell lines (human, UniProt P21860 20-1342)
T2 sequence (P21860 20-1342 limits assumed): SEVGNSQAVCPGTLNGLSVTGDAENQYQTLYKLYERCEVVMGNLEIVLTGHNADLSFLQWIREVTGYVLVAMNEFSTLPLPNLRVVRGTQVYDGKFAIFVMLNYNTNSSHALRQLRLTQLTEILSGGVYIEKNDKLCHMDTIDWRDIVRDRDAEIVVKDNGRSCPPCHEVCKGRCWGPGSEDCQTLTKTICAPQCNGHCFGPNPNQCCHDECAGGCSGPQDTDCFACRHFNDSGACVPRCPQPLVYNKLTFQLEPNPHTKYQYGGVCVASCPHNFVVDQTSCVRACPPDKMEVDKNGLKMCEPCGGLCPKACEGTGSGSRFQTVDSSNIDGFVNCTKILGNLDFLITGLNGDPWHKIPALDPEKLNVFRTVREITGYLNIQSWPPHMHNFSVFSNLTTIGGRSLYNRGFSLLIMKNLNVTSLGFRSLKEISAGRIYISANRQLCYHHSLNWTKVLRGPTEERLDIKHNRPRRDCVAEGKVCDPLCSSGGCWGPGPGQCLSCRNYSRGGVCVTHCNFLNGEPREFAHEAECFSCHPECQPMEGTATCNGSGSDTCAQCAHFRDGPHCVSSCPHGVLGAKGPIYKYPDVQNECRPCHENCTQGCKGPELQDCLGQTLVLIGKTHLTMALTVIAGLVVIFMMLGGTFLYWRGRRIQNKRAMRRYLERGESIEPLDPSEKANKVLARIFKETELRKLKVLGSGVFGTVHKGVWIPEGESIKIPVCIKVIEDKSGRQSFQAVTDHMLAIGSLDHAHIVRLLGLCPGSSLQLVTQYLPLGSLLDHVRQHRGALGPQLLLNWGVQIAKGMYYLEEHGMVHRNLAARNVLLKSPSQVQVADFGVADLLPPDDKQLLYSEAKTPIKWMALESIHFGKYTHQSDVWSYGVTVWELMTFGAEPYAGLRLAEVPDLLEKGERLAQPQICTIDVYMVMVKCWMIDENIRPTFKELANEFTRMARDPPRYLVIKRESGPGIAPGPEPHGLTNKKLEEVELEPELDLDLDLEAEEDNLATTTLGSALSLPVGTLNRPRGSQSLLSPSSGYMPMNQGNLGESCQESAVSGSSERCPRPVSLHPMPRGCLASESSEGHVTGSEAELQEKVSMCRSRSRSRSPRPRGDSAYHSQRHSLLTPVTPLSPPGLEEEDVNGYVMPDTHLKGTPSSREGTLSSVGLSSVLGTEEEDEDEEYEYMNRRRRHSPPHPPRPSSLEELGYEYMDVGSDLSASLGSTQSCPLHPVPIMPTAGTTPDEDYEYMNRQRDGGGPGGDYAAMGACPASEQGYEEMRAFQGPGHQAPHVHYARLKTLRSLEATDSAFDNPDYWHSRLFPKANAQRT
Assay: cell-based or functional assay

| Binder | pErbB3 % Inhibition (BxPC-3) [%] | pErbB3 IC50 (BxPC-3) |
| --- | --- | --- |
| B1 | 99 | 1.4e-10 M (inferred) |
| B2 | 100 | 1.4e-10 M (inferred) |
| B3 | 95 | 3.9e-11 M (inferred) |
| B4 | 98 | 7.9e-11 M (inferred) |
| B5 | 98 | 2.3e-10 M (inferred) |
| B6 | 99 | 1.4e-10 M (inferred) |
| B7 | 98 | 6.5e-11 M (inferred) |
| B8 | 115 | 8e-11 M (inferred) |
| B9 | 107 | 1.2e-10 M (inferred) |
| B10 | 109 | 2.4e-11 M (inferred) |
| B11 | 179 | 1.5e-10 M (inferred) |
| B12 | 162 | 1.2e-09 M (inferred) |
| B13 | 106 | 1e-10 M (inferred) |
| B14 | 140 | 1.1e-10 M (inferred) |
| B15 | 88 | 3.1e-10 M (inferred) |
| B16 | 99 | 4e-11 M (inferred) |
| B17 | 124 | 5.2e-11 M (inferred) |
| B18 | 111 | 4e-11 M (inferred) |

Target: T1, IGF-1R (receptor for insulin-like …)
Assay: cell-based or functional assay
Remark: another data set of the same source

| Binder | pIGF1R IC50 (BxPC-3) |
| --- | --- |
| B8 | 1.4e-09 M (inferred) |
| B10 | 2.4e-09 M (inferred) |
| B12 | 4.4e-09 M (inferred) |
| B16 | 2.2e-08 M (inferred) |
| B17 | 2.1e-08 M (inferred) |

Target: T2, ErbB3 (HER3), endogenous on human tumor …
Assay: cell-based or functional assay
Remark: another data set of the same source

| Binder | pErbB3 IC50 (BxPC-3) |
| --- | --- |
| B8 | 1e-11 M (inferred) |
| B10 | 2.4e-11 M (inferred) |
| B12 | 2.3e-11 M (inferred) |
| B16 | ~2.4e-14 M (inferred) |
| B17 | 5.2e-11 M (inferred) |
